We go through 5 molecules from patent publication US20020160955A1 (published 2002).

Residue numbers refer to the chain shown, from its start. In names and notes the source's numbering stands.

For one assay, the target named is T1, human IGFBP-1 (human, UniProt P08833 26-259).
T1 construct: secreted recombinant protein purified from conditioned medium
T1 sequence (looked up): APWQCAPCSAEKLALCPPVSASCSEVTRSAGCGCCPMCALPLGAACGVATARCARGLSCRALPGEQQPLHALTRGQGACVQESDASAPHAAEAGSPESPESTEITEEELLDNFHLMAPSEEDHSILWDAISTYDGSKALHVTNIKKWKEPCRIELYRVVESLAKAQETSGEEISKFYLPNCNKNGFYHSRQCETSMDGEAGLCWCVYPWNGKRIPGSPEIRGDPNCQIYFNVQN
Briefly: competitive phage ELISA. The protocol:
(§1) E. coli cells (XL1-Blue, Stratagene) freshly transformed with phagemid vector were grown overnight in 5 mL 2YT medium (Sambrook et al, supra) in the presence of M13-VCS helper phage (Stratagene). Phage particles were harvested and resuspended in PBS buffer as described in Lowman, H. B., “Phage Display of Peptide Libraries on Protein Scaffolds,” in Cabilly, S. (ed.), Combinatorial Peptide Library Protocols (Humana Press Inc.: Totowa, N.J., 1998), pp. 249-264. Then phage concentrations were normalized to yield a maximal ELISA signal of 0.2-0.4 for each mutant (Lowman, in Cabilly, S. (ed.), supra). Threefold serial dilutions of soluble competitor were prepared on non-absorbent microtiter plates (Nunc, F, 96 wells) with binding buffer (0.5% TWEEN™ 20/PBS) containing phage at the previously-determined concentrations. […] After blocking, the plates containing immobilized target were washed with 0.05% TWEEN™/PBS buffer and subsequently incubated with 80 μl/well of the premixed phage-competitor solutions for 1 hour at room temperature. After washing, bound phage was detected with 80 μl/well of a solution containing a primary rabbit anti-phage polyclonal antibody and a secondary goat anti-rabbit monoclonal antibody-horseradish peroxidase conjugate in 0.5% TWEEN 20™/PBS. o-Phenylenediamine (Sigma) and tetramethylbenzidine (Kirkegaard and Perry) were used as chromogenic substrates, resulting in product detection at 492 and 450 nm, respectively. IC₅₀ values were determined by fitting the binding data to a generic saturation curve (Lowman, in Cabilly, S. (ed.), supra). […] Numbers in Table I represent mean +standard deviation of individually assessed IC₅₀ values.
In general terms: ELISA stands for enzyme-linked immunosorbent assay.

Assay [1] addresses T2, recombinant human IGFBP-3 (human, UniProt P17936 28-291).
T2 construct: secreted recombinant protein purified from conditioned medium
Briefly: competitive phage ELISA. The protocol:
as §1

Assay [2] concerns the target T2, recombinant human IGFBP-3. Description: competitive phage ELISA: soluble IGFBP-3 against IGFBP-3-coated wells. The protocol: The plates were then blocked with 0.5% TWEEN 20™/PBS (also used as binding buffer) for 2 hours at room temperature (proteinaceous blocking agents like bovine serum albumin were avoided to prevent potential IGF or IGFBP contamination). E. coli cells (XL1-Blue, Stratagene) freshly transformed with phagemid vector were grown overnight in 5 mL 2YT medium (Sambrook et al, supra) in the presence of M13-VCS helper phage (Stratagene). Phage particles were harvested and resuspended in PBS buffer as described in Lowman, H. B., “Phage Display of Peptide Libraries on Protein Scaffolds,” in Cabilly, S. (ed.), Combinatorial Peptide Library Protocols (Humana Press Inc.: Totowa, N.J., 1998), pp. 249-264. Then phage concentrations were normalized to yield a maximal ELISA signal of 0.2-0.4 for each mutant (Lowman, in Cabilly, S. (ed.), supra). Threefold serial dilutions of soluble competitor were prepared on non-absorbent microtiter plates (Nunc, F, 96 wells) with binding buffer (0.5% TWEEN™ 20/PBS) containing phage at the previously-determined concentrations.

T2 sequence (P17936 28-291 limits assumed): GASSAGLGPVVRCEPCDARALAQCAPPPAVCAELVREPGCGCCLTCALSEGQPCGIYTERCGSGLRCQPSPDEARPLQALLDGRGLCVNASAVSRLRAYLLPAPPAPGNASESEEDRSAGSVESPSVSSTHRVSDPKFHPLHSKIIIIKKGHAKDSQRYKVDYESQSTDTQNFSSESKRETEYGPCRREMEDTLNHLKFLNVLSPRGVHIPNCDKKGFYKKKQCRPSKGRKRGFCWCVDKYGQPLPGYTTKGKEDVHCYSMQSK

B1: IGF-I D12A (G1S-A70V background) displayed on phage (ligand, not shown: large carriers)
chain: SPETLCGAELVAALQFVCGDRGFYFNKPTGYGSSSRRAPQTGIVDECCFRSCDLRRLEMYCAPLKPAKSV
notes: monovalent M13 phage display
As for B1, the binding result with human IGFBP-1 is on record as “binds”.

B2: IGF-I S35A (G1S-A70V background) displayed on phage (ligand, not shown: large carriers)
chain: B1 chain with A12D, S35A
notes: monovalent M13 phage display
Regarding B2, in assay [1], the binding result was “binds”.

B3: IGF-I D45A (G1S-A70V background) displayed on phage (ligand, not shown: large carriers)
chain: B1 chain with A12D, D45A
notes: monovalent M13 phage display
B3: in the assay with human IGFBP-1, the binding result is listed as “binds”.

B4: IGF-I F49A (G1S-A70V background) displayed on phage (ligand, not shown: large carriers; small tags and cut ends)
chain: B1 chain with A12D, F49A
notes: monovalent M13 phage display; also called IGF-F49A phage
Take B4: the binding result in assay [2] is on record as “binds”.

B5: IGF-I T41A (G1S-A70V background) displayed on phage (ligand, not shown: large carriers)
chain: B1 chain with A12D, T41A
notes: monovalent M13 phage display
Take B5: the binding result in assay [1] was “binds”.
